# Measured values taken from US20210024620A1.
# How the values were obtained:
# rat FcRn (rat) [1] = molecular target: rat FcRn (rat) (UniProt P13599); test: Biacore SPR, pH 7.4
# [2] = molecular target: biotinylated human FcRn (human) (UniProt P55899); test: Biacore SPR, pH 6.0
# [3] = molecular target: biotinylated human FcRn (p51 subunit residues 24-297 with C-terminal Avi-tag; beta2-microglobulin residues 21-119) (human) (UniProt P55899); test: Biacore SPR, pH 6.0
# rat FcRn (rat) [4] = molecular target: rat FcRn (rat) (UniProt P13599); test: Biacore SPR, pH 6.0
# [5] = molecular target: biotinylated human FcRn (human) (UniProt P55899); test: Biacore SPR, pH 7.4
# [6] = molecular target: biotinylated human FcRn (human) (UniProt P55899); test: Biacore SPR, pH 6.0; remark: listed apart in the source
# rat FcRn (rat) [7] = molecular target: rat FcRn (rat) (UniProt P13599); test: Biacore, pH 6.0, apparent KD
# [8] = molecular target: biotinylated human FcRn (human) (UniProt P55899); test: Biacore SPR, pH 7.4, 1000 nM antibody
# rat FcRn (rat) [9] = molecular target: rat FcRn (rat) (UniProt P13599); test: Biacore SPR, pH 7.4, 1000 nM antibody
# [10] = molecular target: FcRn immobilised on the FcRn affinity column (biotinylated cynoFcRn in one experiment, biotinylated hFcRn in another); test: FcRn affinity chromatography, linear pH gradient; species of the immobilised FcRn not given
# [11] = molecular target: biotinylated human FcRn (p51 subunit residues 24-297 with C-terminal Avi-tag; beta2-microglobulin residues 21-119) (human) (UniProt P55899); test: Biacore SPR, pH 7.4, steady state
# [12] = molecular target: biotinylated human FcRn (p51 subunit residues 24-297 with C-terminal Avi-tag; beta2-microglobulin residues 21-119) (human) (UniProt P55899); test: Biacore; affinity at pH 6.0 (M^-1) over steady state RU at pH 7.4
# [13] = molecular target: biotinylated human FcRn (p51 subunit residues 24-297 with C-terminal Avi-tag; beta2-microglobulin residues 21-119) (human) (UniProt P55899); test: Biacore; inverse ratio (RU at pH 7.4 over affinity at pH 6.0)
# [14] = molecular target: biotinylated human FcRn (human) (UniProt P55899); test: Biacore, pH 6.0, apparent KD
# Chain of rat FcRn (rat) (P13599 23-298 limits assumed, chain 1 of 2): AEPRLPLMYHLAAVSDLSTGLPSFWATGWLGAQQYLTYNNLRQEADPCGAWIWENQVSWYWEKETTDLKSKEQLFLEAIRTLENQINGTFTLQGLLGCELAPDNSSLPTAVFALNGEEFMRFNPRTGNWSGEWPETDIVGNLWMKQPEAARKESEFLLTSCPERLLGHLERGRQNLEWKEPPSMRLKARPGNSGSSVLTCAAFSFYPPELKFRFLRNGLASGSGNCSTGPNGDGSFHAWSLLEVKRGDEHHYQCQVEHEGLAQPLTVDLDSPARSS
# Chain of rat FcRn (rat) (P07151 21-119 limits assumed, chain 2 of 2, further chain): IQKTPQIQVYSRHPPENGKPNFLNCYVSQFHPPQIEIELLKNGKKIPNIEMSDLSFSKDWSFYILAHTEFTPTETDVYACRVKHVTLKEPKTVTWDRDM
# Chain of biotinylated human FcRn (human) (P55899 24-297 limits assumed, chain 1 of 2): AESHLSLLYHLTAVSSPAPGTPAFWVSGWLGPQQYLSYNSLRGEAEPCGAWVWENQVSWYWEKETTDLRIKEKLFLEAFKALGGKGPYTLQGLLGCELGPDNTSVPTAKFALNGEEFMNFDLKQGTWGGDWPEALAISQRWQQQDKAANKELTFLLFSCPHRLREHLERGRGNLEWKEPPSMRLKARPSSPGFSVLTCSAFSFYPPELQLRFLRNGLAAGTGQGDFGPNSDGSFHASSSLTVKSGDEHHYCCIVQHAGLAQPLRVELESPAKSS
# Chain of biotinylated human FcRn (human) (P61769 21-119 limits assumed, chain 2 of 2, further chain): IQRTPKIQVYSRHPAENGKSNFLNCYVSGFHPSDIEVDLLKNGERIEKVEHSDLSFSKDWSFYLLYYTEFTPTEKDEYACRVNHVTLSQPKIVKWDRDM
# Chain of biotinylated human FcRn (p51 subunit residues 24-297 with C-terminal Avi-tag; beta2-microglobulin residues 21-119) (human) (P55899 24-297 limits assumed, chain 1 of 2): as the sequence (P55899 24-297 limits assumed, chain 1 of 2) above
# Chain of biotinylated human FcRn (p51 subunit residues 24-297 with C-terminal Avi-tag; beta2-microglobulin residues 21-119) (human) (P61769 21-119 limits assumed, chain 2 of 2, further chain): as the sequence (P61769 21-119 limits assumed, chain 2 of 2, further chain) above
Substance,Steady State RU (rat FcRn (rat) [1]) [RU],Kd [2] [nM],Ka [3] [M⁻¹],Kd (rat FcRn (rat) [4]) [nM],Steady State RU [5] [RU],Kd (rat FcRn (rat) [7]) [nM],Steady State RU (rat FcRn (rat) [9]) [RU],FcRn affinity column elution pH [10] [pH],"Steady State Binding, pH 7.4 (RU) [11] [RU]",Ratio (pH 6.0/pH 7.4) [12],Ratio (pH 6.0/pH 7.4) [13],other results
mAb1 MEQN (T256E/T307Q) (antibody),23.4,499,2e+06,10.7,,,,,,,,
mAb1 MEWN (T256E/T307W) (antibody),33,323,3.1e+06,10.6,,,,,,,,
mAb1 T256E (antibody),17,,,113,4.5,113,23,7.63,,,,Kd [6]: > 3000 nM; Steady State RU [8]: 4.8 RU
mAb1 MTWF (T307W/N434F) (antibody),65.1,38.2,2.62e+07,2.7,30.5,,,,30.5,,,koff (rat FcRn (rat) [4]): 0.00057 s⁻¹
mAb1 K288N (antibody),,,,190,,190,20.4,7.39,,,,
mAb1 METY (T256E/N434Y) (antibody),62.2,62.6,1.6e+07,7.71,26.8,,,,26.8,597000,,koff [2]: 0.0393 s⁻¹; kon [2]: 628000 M⁻¹ s⁻¹; koff (rat FcRn (rat) [4]): 0.00098 s⁻¹; kon (rat FcRn (rat) [4]): 127000 M⁻¹ s⁻¹
mAb1 METF (T256E/N434F) (antibody),59,78.2,1.28e+07,7.53,23.3,,,,23.3,549000,,koff [2]: 0.0419 s⁻¹; kon [2]: 536000 M⁻¹ s⁻¹; koff (rat FcRn (rat) [4]): 0.00081 s⁻¹; kon (rat FcRn (rat) [4]): 108000 M⁻¹ s⁻¹; Ratio [13]: 1.82e-06
mAb1 MEWF (T256E/T307W/N434F) (antibody),,,5.62e+07,,,,,,41.9,1.34e+06,7.46e-07,
mAb1 Y436H (antibody),,,,131,,131,16.3,7.33,,,,Steady State RU [8]: 3.6 RU
mAb1 Y436N (antibody),,,,233,,233,17.4,7.22,,,,Steady State RU [8]: 3.6 RU
mAb1 MTWY (T307W/N434Y) (antibody),69.6,21.5,4.65e+07,0.62,37.2,,,,37.2,1.25e+06,8e-07,koff [2]: 0.0317 s⁻¹; kon [2]: 1.48e+06 M⁻¹ s⁻¹; koff (rat FcRn (rat) [4]): 0.0003 s⁻¹; kon (rat FcRn (rat) [4]): 480000 M⁻¹ s⁻¹
mAb1 YETY (M252Y/T256E/N434Y) (antibody),,,3.34e+07,,,,,,22.6,1.48e+06,6.77e-07,
mAb1 M252Y (antibody),50.5,3100,,25,,25,57.7,7.88,,,,Kd [6]: > 3000 nM; Kd [14]: 3100 nM
mAb1 K288D (antibody),,,,149,,149,21.9,7.33,,,,Steady State RU [8]: 3.8 RU
mAb1 YTWF (M252Y/T307W/N434F) (antibody),,,6.54e+07,,,,,,62.6,1.04e+06,9.57e-07,
mAb1 N434F (antibody; other documents disagree on this pair),,165,,,22.2,,,,,,,Kd [14]: 165 nM; Steady State RU [8]: 20.1 RU
mAb1 N434P (antibody),,,,194,,194,4.3,7.56,,,,Steady State RU [8]: 3.5 RU
mAb1 YTQN (M252Y/T307Q) (antibody),49.2,278,3.6e+06,4.11,10.6,,,,10.6,340000,2.94e-06,koff [2]: 0.096 s⁻¹; kon [2]: 345000 M⁻¹ s⁻¹; koff (rat FcRn (rat) [4]): 0.00105 s⁻¹; kon (rat FcRn (rat) [4]): 255000 M⁻¹ s⁻¹
mAb1 YDWN (M252Y/T256D/T307W) (antibody),,,1.01e+07,,,,,,25.9,390000,2.56e-06,
mAb1 T307F (antibody),,,,131,,131,21.9,7.61,,,,Steady State RU [8]: 4.9 RU

Substance,Steady State RU (rat FcRn (rat) [1]) [RU],Kd [2] [nM],Ka [3] [M⁻¹],Kd (rat FcRn (rat) [4]) [nM],Steady State RU [5] [RU],Kd (rat FcRn (rat) [7]) [nM],Steady State RU (rat FcRn (rat) [9]) [RU],FcRn affinity column elution pH [10] [pH],"Steady State Binding, pH 7.4 (RU) [11] [RU]",Ratio (pH 6.0/pH 7.4) [12],Ratio (pH 6.0/pH 7.4) [13],other results
mAb1 MDQF (T256D/T307Q/N434F) (antibody),,,6.62e+06,,,,,,55.3,,,
mAb1 YTQY (M252Y/T307Q/N434Y) (antibody),,,6.33e+07,,,,,,71.5,885000,1.13e-06,
mAb1 YEWN (M252Y/T256E/T307W) (antibody),,,6.41e+06,,,,,,69.6,92100,1.09e-05,
mAb1 MDTY (T256D/N434Y) (antibody),71.6,15.6,6.41e+07,0.6,37.1,,,,37.1,1.73e+06,,koff [2]: 0.0285 s⁻¹; kon [2]: 1.83e+06 M⁻¹ s⁻¹; koff (rat FcRn (rat) [4]): 0.00025 s⁻¹; kon (rat FcRn (rat) [4]): 413000 M⁻¹ s⁻¹
mAb1 YDTF (M252Y/T256D/N434F) (antibody),,,2.96e+07,,,,,,57.7,513000,1.95e-06,
mAb1 E380C (antibody),,,,6310,,6310,27.7,7.18,,,,Steady State RU [8]: 5.7 RU
mAb1 MTQF (T307Q/N434F) (antibody),62.5,42.9,2.33e+07,3.89,34.2,,,,34.2,681000,1.47e-06,koff [2]: 0.0246 s⁻¹; kon [2]: 574000 M⁻¹ s⁻¹; koff (rat FcRn (rat) [4]): 0.0004 s⁻¹; kon (rat FcRn (rat) [4]): 104000 M⁻¹ s⁻¹
mAb1 Y436W (antibody),,,,1140,,1140,10.3,7.39,,,,Steady State RU [8]: 3.7 RU
mAb1 MDTF (T256D/N434F) (antibody),63,29.9,3.34e+07,1.78,29.2,,,,29.2,1.14e+06,8.74e-07,koff [2]: 0.029 s⁻¹; kon [2]: 968000 M⁻¹ s⁻¹; koff (rat FcRn (rat) [4]): 0.00039 s⁻¹; kon (rat FcRn (rat) [4]): 218000 M⁻¹ s⁻¹
mAb1 T307M (antibody),,,,279,,279,15.3,7.4,,,,Steady State RU [8]: 4.4 RU
mAb1 MDQY (T256D/T307Q/N434Y) (antibody),,,3.69e+07,,,,,,49.4,747000,,Ratio [13]: 1.34e-06
mAb1 YTTF (M252Y/N434F) (antibody),79.3,18,5.56e+07,0.29,43.8,,,,43.8,1.27e+06,,koff [2]: 0.023 s⁻¹; kon [2]: 1.27e+06 M⁻¹ s⁻¹; koff (rat FcRn (rat) [4]): 0.00012 s⁻¹; kon (rat FcRn (rat) [4]): 403000 M⁻¹ s⁻¹; Ratio [13]: 7.88e-07
mAb1 MEQF (T256E/T307Q/N434F) (antibody),,,142000,,,,,,,,,
mAb1 MEWY (T256E/T307W/N434Y) (antibody),,,7.04e+07,,,,,,46.6,1.51e+06,6.62e-07,
mAb1 MEQY (T256E/T307Q/N434Y) (antibody),,,2.38e+07,,,,,,38.6,617000,,
mAb1 MDWF (T256D/T307W/N434F) (antibody),,,2.81e+07,,,,,,47.1,597000,1.68e-06,
mAb1 T307A (antibody),,,,132,,132,23.1,7.61,,,,Steady State RU [8]: 5.2 RU
mAb1 MTQY (T307Q/N434Y) (antibody),63,32.4,3.09e+07,4.11,38.4,,,,38.4,805000,1.24e-06,koff [2]: 0.0202 s⁻¹; kon [2]: 622000 M⁻¹ s⁻¹; koff (rat FcRn (rat) [4]): 0.00048 s⁻¹; kon (rat FcRn (rat) [4]): 116000 M⁻¹ s⁻¹
mAb1 YTQF (M252Y/T307Q/N434F) (antibody),,,5.65e+07,,,,,,59.9,943000,1.06e-06,
